Experimental findings from patent US20140287419A1, “Compositions Having Dicamba Decarboxylase Activity and Methods of Use” (priority 2013, published 2014) are described below.

Substitutions are numbered along the chain they refer to. Numbers in names are those of the source.

Data set [1] in a line: Detection of 2,5-DCP product by GC/MS. The conditions noted are these: purified protein. It is filed as biochemical. On the procedure: The decarboxylated and demethylated product of dicamba, 2,5-dichloro phenol or 2,5-DCP (FIG. 1E) is measured using a GC/MS analytical procedure with either liquid injection after liquid/liquid extraction using toluene as the extraction solvent or gas injection using head space method. The head space sample analysis is carried out on an Agilent GC/MS system with a 6890A GC, a 5973N MSD and a CTC CombiPAL auto-sampler or with a 7890A GC, a 5975C MSD and an Agilent GC Sampler 80 auto-sampler with Phenomenex ZB-MultiResidue-1 column (30 m length, 0.25 mm diameter, 0.25 um film) or equivalent. GC/MS parameters are: GC inlet temperature, 200° C.; Carry gas, helium in constant flow mode (1.2 mL/min); Oven temperature program, 70° C. for 1 min and then ramp to 275° C. at 40° C./min. […] The reaction vial is transferred to a agitator for incubation at 90° C. for 4 min at 500 rpm. With a syringe preheated at 110° C., 1000 uL of head space is injected with sample fill speed at 100 uL/sec. A 2-mm diameter liner is used in sample inlet. The MS data acquisition is done in SIM (selected ion monitoring) mode. The positive ion at M/Z 162 for the molecular ion of 2,-5-DCP is monitored at retention time of 4.06 min. Solvent delay for MS acquisition is set at 3 min. GC/MS parameters for liquid sample analysis are the same as those for head space analysis, except that the volume of liquid injection is 1 uL.

Data set [2] can be described thus: Detection of 2,5-DCA product by toluene capture or head-space GC/MS. It is filed as biochemical. The conditions noted are these: purified protein, toluene capturing. On the procedure: Alternatively, dicamba decarboxylase activity can be monitored by measuring decarboxylation products other than CO2 using product detection methods. The decarboxylation product of dicamba, 2,5-dichloro anisole or 2,5-DCA (FIG. 1C), is a volatile compound with a flash point of 21° C. To capture this volatile compound for detection, 140 ul of toluene solution is added on top of 1 ml reaction mixture to form a trapping layer in a 1.5 ml eppendorf tube. […] The reaction is kept still at room temperature overnight before being vortex mixed and centrifuged at 14,000 rpm for 15 minutes. The top toluene phase is carefully removed using a micropipette and transferred into a 12×32 mm polypropylene vial (Vial 11 mm) from MicroLiter Analytical Supplies, Inc. (catalog number 11-5300-100). The vial is sealed with Crimp seal (11 mm with FEP/Nat Rubber) from MicroLiter Analytical Supplies, Inc. (catalog number 11-0020A) using a E-Z Crimper™ 11 mm from Wheaton Inc. 1 ul of the toluene mixture is taken from the sealed vials and injected in splitless mode into a GC/MS system for sample analysis (Agilent GC/MS system with a 6890A GC, a 5973N MSD and a CTC CombiPAL auto-sampler or with a 7890A GC, a 5975C MSD and an Agilent GC Sampler 80 auto-sampler). The GC parameters are: Agilent DB-5MS column (30 m length, 0.25 mm diameter, 0.25 um film) or equivalent; The GC inlet temperature, 250° C.; Carry gas, helium in constant flow mode (1.2 mL/min); The GC oven temperature program, initial temperature at 70° C. for 1 min, ramping to 200° C. at 15° C./min, and then ramping to 250° C. at 30° C./min. MS data acquisition is done in SIM (selected ion monitoring) mode, monitoring the positive ion at M/Z 176 for the molecular ion of […]. The solvent delay for MS acquisition is set at 4 min. Another method for detection of 2,5-DCA is a head-space GC/MS method. Briefly, reaction mixtures in 500 ul reaction volume are prepared in 1.5 ml×32 mm glass vials (Microliter Analytical Supplies, Cat#11-1200) for head space analysis. Glass vials are sealed with magnetic cap from MicroLiter Analytical Supplies, Inc. (catalog number 11-0030AT) using a E-Z Crimper™ 11 mm from Wheaton Industries Inc. The reaction is carried out at room temperature for various amount of time and stopped by heating at 95° C. for 5 min. The reaction vial is transferred to a agitator for incubation at 80° C. for 5 min at 500 rpm. With a syringe preheated at 80° C., 1000 uL of head space is injected with sample fill speed at 100 uL/sec. GC/MS parameters for headspace analysis are the same as for liquid sample analysis.

Data set [3] can be described thus: Detection of 4-chloro-3-methoxy phenol product by LC-MS/MS. The format is biochemical. The conditions noted are these: purified protein. The protocol:
The decarboxylated and chloro hydrolyzed product, 4-chloro-3-methoxy phenol (FIG. 1D), is measured using a LC-MS/MS analytical procedure. […] 10 ul is removed from the reaction mixture and mixed with 90 ul pre-chilled methanol followed by centrifugation at 14,000 rpm for 15 min at 4° C. 10 ul of the supernatant is then transferred into 170 ul ddH2O to achieve 5% methanol solution for injection. 50 ul of the prepared sample is injected into a 4000 Q Trap LC-MS/MS system for sample analysis. LC-MS/MS parameters are: Mobile Phase A, 2 mM ammonium acetate in water; Mobile Phase B, 2 mM ammonium acetate in methanol; Column, Aquasil, 100×2.1 mm, 3 μm, C18 column; Flow Rate, 0.6 ml/min. The MS/MS fragment 157/142 which is common to 4-chloro-3-methoxy phenol, 2-chloro-5-methoxy phenol, and 3-chloro-5-methoxy phenol is monitored at a retention time of 2.88 min.

Data set [4] is described as follows: Dicamba decarboxylation activity of computationally designed protein variants. Particulars: native protein or designed variant versus parent.
Data set [5] is described as follows: 14C assay with purified protein (14CO2 captured on Ca(OH)2 filter paper). The format is biochemical. Particulars: [14C]-carboxyl-labeled dicamba.
A short description of data set [6]: Saturation mutagenesis of SEQ ID NO:109, dicamba decarboxylation activity of point mutants.
[7] abbreviates: dicamba decarboxylation activity of point mutants of SEQ ID NO: 109 (NNK saturation mutagenesis), relative to the unchanged template.

B1: SEQ ID NO:120: Design variant of SEQ ID NO: 100 (protein)
chain: MAIIDCHGHYTTTPKGVETYRNAQKAAVAKDPSFKYEKGQVVVSDDEIRESIENNQLKMQRERGTDLTIFSPRSTAGGHHIGNEYTSQFWTEHQNDLIRRVCDLFPKNFAPVAQLPQSPGVDPAKSVPEIVRTVEQMGFIGINLNPDPSGGYWKDTSLADRAFYPIYEKMVEYDIPAMIHPRNACNDCFHTTGSHALGADTTGFQQLIMSDVFKDFPSLKIIIPHGGGAVPYHWGRFRGLMQDQGYAPLEESALKNIYFDTCVYHQRGIDLLLDIVPTQNILFASEMIGAVRGIDAETGHNFDDTKRYIDNNTALNAEEKAMIFEGNARRVFSRLKTD
modifications: Dicamba decarboxylase variant clone DC.12.002
Regarding B1, in data set [1], the “2,5-DCP product” value was “not detected”. Further, the “2,5-DCA product” value in data set [2] is listed as “detected”. The 4-chloro-3-methoxy phenol product entry in data set [3] was “not detected”. Also, the “Dicamba Decarboxylase Activity” value in data set [4] is “have dicamba decarboxylase activity”. In addition, the CO2 product result in data set [5] is “not detected”.

B2: V235I: point mutation V235I of SEQ ID NO:109 (protein)
chain: MAQGKVALEEHFAIPETLQDSAGFVPGDYWKELQHRLLDIQDTRLKLMDAHGIETMILSLNAPAVQAIPDRRKAIEIARRANDVLAEECAKRPDRFLAFAALPLQDPDAATEELQRCVNDLGFVGALVNGFSQEGDGQTPLYYDLPQYRPFWGEVEKLDVPFYLHPRNPLPQDSRIYDGHPWLLGPTWAFAQETAVHALRLMASGLFDEHPRLNIILGHMGEGLPYMMWRIDHRIAWVKLPPRYPAKRRFMDYFNENFHITTSGNFRTQTLIDAILEIGADRILFSTDWPFENIDHASDWFNATSIAEADRVKIGRTNARRLFKLDGA
modifications: Dicamba decarboxylase variant clone DC.4.032
Turning to B2, the “Average Activity (Fold of SEQ ID NO: 109)” value is 1.8 Fold of SEQ ID NO: 109 in data set [6] (setting [7]) and 1.8 Fold of SEQ ID NO: 109 in data set [6] (dicamba decarboxylation activity of single point mutants of SEQ ID NO:109, relative to unchanged template).

B3: L240D: point mutation L240D of SEQ ID NO:109 (protein)
chain: B2 chain with I235V, L240D
modifications: Dicamba decarboxylase variant clone DC.4.032
As to B3, the “Average Activity (Fold of SEQ ID NO: 109)” value in data set [6] (setting [7]) is listed as 2.2 Fold of SEQ ID NO: 109.

B4: L240A: point mutation L240A of SEQ ID NO:109 (protein)
chain: B2 chain with I235V, L240A
modifications: Dicamba decarboxylase variant clone DC.4.032
Regarding B4, the “Average Activity (Fold of SEQ ID NO: 109)” value in data set [6] (setting [7]) is on record as 2.3 Fold of SEQ ID NO: 109.

B5: SEQ ID NO:118: Design variant of SEQ ID NO: 95 (protein)
chain: MAKKPRIDMHSHFFPRISEQEAAKFDANHAPWLQVSAKGDTGSIMMGKNNFQPVYQALWDPAFRIEEMDAQGVDVQVTCATPVMFGYTWEANKAAQWAERMNDFALEFAAHNPQRIKVLAQVPLQDLDLACKEASRAVAAGHLGIQIGNHLGDKDLDDATLEAFLTHCANEDIPILVHGTDMMGGQRMKKWGLPWLVALAAEVQLAILSLILSGAFERIPKSLKICFSHGGGSFAFLLGLVDEAWRHVDIVREDCPRPPSEYVDRFFVDSVGNPGALELLVSVMGEDRVMLGSDYPHTTGEQKIGGLVLSSNLGESAKDKIISGNASKFFNINV
modifications: Dicamba decarboxylase variant clone DC.5.033
As for B5, the “2,5-DCP product” value in data set [1] is “not detected”. For the same molecule, the “2,5-DCA product” value in data set [2] is “detected”. Also, in data set [3], the 4-chloro-3-methoxy phenol product entry was “not detected”. Further, the “Dicamba Decarboxylase Activity” value in data set [4] is given as “have dicamba decarboxylase activity”. In addition, the CO2 product result in data set [5] is reported as “not detected”.

B6: SEQ ID NO:119: Design variant of SEQ ID NO: 95 (protein)
chain: B5 chain with T180W, P194Y, L199H, A200H, L237T, L240W, H297L
modifications: Dicamba decarboxylase variant cloneDC.5.034
Regarding B6, the “2,5-DCP product” value in data set [1] was “not detected”. The “2,5-DCA product” value in data set [2] was “detected”. The 4-chloro-3-methoxy phenol product result in data set [3] is on record as “not detected”. In addition, the “Dicamba Decarboxylase Activity” value in data set [4] is on record as “have dicamba decarboxylase activity”. In data set [5], the CO2 product result is reported as “not detected”.

B7: SEQ ID NO:117: Design variant of SEQ ID NO: 95 (protein)
chain: MAKKPRIDMHSHFFPRISEQEAAKFDANHAPWLQVSAKGDTGSIMMGKNNFRPVYQALWDPAFRIEEMDAQGVDVQVTCATPVMFGYTWEANKAAQWAERMNDFALEFAAHNPQRIKVLAQVPLQDLDLACKEASRAVAAGHLGIQIGNHLGDKDLDDATLEAFLTHCANEDIPILVHPWDMMGGQRMKKWMLPVLVAAPAEVQLAILSLILSGAFERIPKSLKICFAGGGGSFAFLLGIVDLAWRHRDIVREDCPRPPSEYVDRFFVDSLVFNPGALELLVSVMGEDRVMLGSDYPFPTGEQKIGGLVLSSNLGESAKDKIISGNASKFFNINV
modifications: Dicamba decarboxylase variant clone DC.5.008
B7: the “2,5-DCP product” value in data set [1] is “not detected”. Further, the “2,5-DCA product” value in data set [2] is reported as “detected”. Besides, the 4-chloro-3-methoxy phenol product result in data set [3] is listed as “not detected”. Further, the “Dicamba Decarboxylase Activity” value in data set [4] is reported as “have dicamba decarboxylase activity”. Also, the CO2 product entry in data set [5] was “not detected”.

B8: SEQ ID NO:121: Design variant of SEQ ID NO: 100 (protein)
chain: MAIIDCHGHYTTTPKGVEDYRNAQKAAVAKDPSFKGEKGQVVVSDDEIRESIENNQLKMQRERGTDLTIFSPRWDAGGHHIGNEYTSQFWTEHQNDLIRRVCDLFPKNFAPVAQLPQSPGVDPAKSVPEIVRTVEQMGFIGINLNPDPSGGYWKDTSLADRAFYPIYEKMVEYDIPAMIHPRLACNACFHTGLSVGLGADTTGFQQLIMSDVFKDFPSLKIIIPHGGGAVPYHWGRFRGLMQDQGYAPLEESALKNIYFDTCVYHQRGIDLLLDIVPTQNILFASEMIGAVRGIDPETGHNFDDTKRYIDNNTALNAEEKAMIFEGNARRVFSRLKTD
modifications: Dicamba decarboxylase variant clone DC.12.014
Consider B8, for which, in data set [1], the “2,5-DCP product” value is recorded as “not detected”. For the same molecule, the “2,5-DCA product” value in data set [2] is reported as “detected”. In addition, the 4-chloro-3-methoxy phenol product result in data set [3] is on record as “not detected”. Further, in data set [4], the “Dicamba Decarboxylase Activity” value is reported as “have dicamba decarboxylase activity”. Besides, the CO2 product result in data set [5] was “not detected”.
